Assay results: patent publication US7507788B2, “Peptides and methods for cell death regulation” (Rappaport Family Institute for Research in the Medical …, priority 2002, dated 2009)

B1: Reaper: wild type Drosophila IAP inhibitor (IAPi) protein REAPER (RPR) (protein)
chain: MAVAFYIPDQATLLREAEQKEQQILRLRESQWRFLATVVLETLRQYTSCHPKTGRKSGKYRKPSQ

Assays:
human XIAP = biological target: T1, human XIAP (Homo sapiens, UniProt P98170); assay: In vitro ubiquitination / self-conjugation reaction with 35S-labeled XIAP; format: biochemical; settings: 35S-XIAP; FIG. 8, 15B, 16, 17
T1 construct: host or cells: cell-free in vitro transcription-translation; the partner His-UBCH5C was made in E. coli BL21 (pLysS)
Experimental: ^35S-methionine labeled mutant and wild type DIAP1, or wild type XIAP were generated in an in vitro transcription-translation system (Promega) from diap1-pET14b, diap1^21-4S pET14b and xiap pcDNA3.1 plasmids. For purification of His-UBCD1 and His-UBCH5C, ubcD1-pET14b and ubcH5C-pT7-7 were expressed in BL21 (pLysS) and purified on a Ni-column according to the manufacturer's protocol (Novagen). In vitro ubiquitination assays were carried out in a total volume of 12.5 μl and contained: ^35S-methionine labeled wild type or mutant DIAP1 or Wild type XIAP (approximately 10,000 cpm), and 250ng E1 (made in baculovirus; vector is the kind gift of Dr. Kazuhiro Iwai, University of Osaka, Osaka, Japan). Unless otherwise stated, 1.2 μg His-UBCD1 or His-UBCH5C was used in each reaction. Reaction mixture contained also 40 mM Tris-HCl, pH 7.6, 5 mM MgCl2, 1 mM DTT, 5 μg ubiquitin, 100 ng Ubiquitin-aldehyde, 2 mM ATPγS [Adenosine 5′-O-(3-thiotriphosphate)]. Reactions were incubated for 50 min at 37° C., and resolved, following addition of a sample buffer on SDS-PAGE (10%). Gels were dried and proteins visualized via Phosphorimaging (Fuji, Japan).

DIAP1 = biological target: T2, DIAP1 (Drosophila melanogaster, UniProt Q24306); assay: In vitro ubiquitination / self-conjugation reaction with 35S-labeled DIAP1; format: biochemical; settings: 35S-DIAP1 with E1, UBCD1 and ubiquitin; SDS-PAGE; FIG. 13-15A
T2 construct: The full length ORF of diap1 was subcloned into the BamH1 site of pET14b (Novagen); His (N); host or cells: cell-free in vitro transcription-translation (reticulocyte lysate); the partner His-UBCD1 was made in E. coli BL21 (pLysS)
T2 sequence (Q24306 1-438): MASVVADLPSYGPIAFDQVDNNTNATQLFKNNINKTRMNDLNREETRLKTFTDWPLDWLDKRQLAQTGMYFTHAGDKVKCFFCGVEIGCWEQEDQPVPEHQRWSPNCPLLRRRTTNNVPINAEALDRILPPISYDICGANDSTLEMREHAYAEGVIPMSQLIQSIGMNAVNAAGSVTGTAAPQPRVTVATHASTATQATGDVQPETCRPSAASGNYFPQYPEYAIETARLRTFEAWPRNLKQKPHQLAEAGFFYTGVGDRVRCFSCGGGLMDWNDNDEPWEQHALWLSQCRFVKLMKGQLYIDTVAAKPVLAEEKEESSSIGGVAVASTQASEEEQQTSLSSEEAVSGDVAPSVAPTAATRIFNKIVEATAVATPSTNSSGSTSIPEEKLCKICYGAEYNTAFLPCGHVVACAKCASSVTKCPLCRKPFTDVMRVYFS
Experimental: ^35S-methionine labeled mutant and wild type DIAP1, or wild type XIAP were generated in an in vitro transcription-translation system (Promega) from diap1-pET14b, diap1^21-4S pET14b and xiap pcDNA3.1 plasmids. For purification of His-UBCD1 and His-UBCH5C, ubcD1-pET14b and ubcH5C-pT7-7 were expressed in BL21 (pLysS) and purified on a Ni-column according to the manufacturer's protocol (Novagen). In vitro ubiquitination assays were carried out in a total volume of 12.5 μl and contained: ^35S-methionine labeled wild type or mutant DIAP1 or Wild type XIAP (approximately 10,000 cpm), and 250ng E1 (made in baculovirus; vector is the kind gift of Dr. Kazuhiro Iwai, University of Osaka, Osaka, Japan). […]
In order to determine whether both amino acid consensus sequences described above are essential for IAP degradation, peptides were generated, with amino acid sequences as described in Tables 1, 3 and 5 above, containing one of each amino acid consensus sequence, or both, and their ability to stimulate in vitro IAP ubiquitination was assessed (FIG. 13). ^35S-methionine labeled wild type DIAP1 was incubated with 250 ng E1 and ubiquitin, with or without the addition of the RPR wild type protein, or peptides containing the RHG amino acid consensus sequence of the RPR HID or GRIM proteins, and the reaction products were resolved by SDS-PAGE.

T1 sequence (P98170 whole entry): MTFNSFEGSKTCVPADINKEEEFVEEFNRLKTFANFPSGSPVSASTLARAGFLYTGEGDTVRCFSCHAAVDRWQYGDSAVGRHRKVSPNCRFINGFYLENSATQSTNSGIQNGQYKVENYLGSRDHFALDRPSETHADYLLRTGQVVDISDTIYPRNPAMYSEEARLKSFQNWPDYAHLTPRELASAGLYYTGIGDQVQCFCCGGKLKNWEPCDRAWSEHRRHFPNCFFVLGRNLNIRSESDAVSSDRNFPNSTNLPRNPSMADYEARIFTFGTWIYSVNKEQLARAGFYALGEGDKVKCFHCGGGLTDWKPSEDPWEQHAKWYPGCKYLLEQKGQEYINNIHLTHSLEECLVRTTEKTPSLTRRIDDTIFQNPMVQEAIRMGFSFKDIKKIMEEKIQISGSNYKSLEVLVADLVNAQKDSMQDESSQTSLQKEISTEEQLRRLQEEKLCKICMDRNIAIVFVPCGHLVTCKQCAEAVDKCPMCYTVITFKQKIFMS

Molecule	stimulation of XIAP auto-ubiquitination / self-conjugation in vitro (human XIAP)	stimulation of IAP (DIAP1) self-conjugation / auto-ubiquitination in vitro (DIAP1)
AVAFYIPDQATLLR QWRFLATVVL (AVAFYIPDQATLLRQWRFLATVVL; Drosophila melanogaster) [Peptide R15W, Reaper RHG plus Trp-box peptide]	greatest effect	–
AVPFYLPE QWRFLATVVL (AVPFYLPEQWRFLATVVL; Drosophila melanogaster) [Peptide H9-W, Hid RHG plus Reaper Trp-box peptide]	greatest effect	–
B1	strongly stimulated	resulted in auto-ubiquitination
